Assay results as given in US20200392147, “AMIDINO- AND AMINO-ROCAGLATES AS NOVEL TRANSLATION INHIBITORS AND ANTICANCER AGENTS” (TRUSTEES OF BOSTON UNIVERSITY, published 2020).

Assays:
Test in all cases: FP
Settings in all cases: tags: His6 (pET15b, E. coli BL21(DE3)); label: FAM
eIF4A1 [1] = target: T1, eIF4A1 (UniProt P60843 P60843:1-406)
Experimental: FAM-labelled RNA was incubated in the presence of 500 nM eIF4A1 and the indicated concentration of CR-1-31-B for 30 min, after which time FP measurements were obtained. The change in FP relative to vehicle controls is presented. n=3 SD.
FIGS. 17A-17F. Assessment of eIF4A1 and eIF4A2 RNA binding specificity. 17A. Chemical structure of the most commonly used rocaglates in biological studies 17B. Coomassie blue staining of SDS-PAGE showing eIF4A1 and eIF4A2 preparations used herein. 17C. eIF4A1 and eIF4A2 have similar RNA binding specificities. eIF4A1 or eIF4A2 (500 nM) were incubated in the presence of FAM-labelled RNA (10 nM) having the indicated sequence composition for 30 mins, after which FP measurements were taken. The change in FP obtained relative to vehicle controls is presented. n=3 SD. 17D. Binding of eIF4A1 and eIF4A2 to RNA is equally responsive to CR-1-31-B (23). FAM labeled poly r(AG)₈ (SEQ ID NO: 2) (10 nM) was mixed with the indicated concentrations of eIF4A1 or eIF4A2 either in the presence of vehicle (DMSO) or […] CR-1-31-B(23). Reactions were equilibrated at RT for 30 minutes prior to measuring light polarization. n=3 SD. 17E. […] FAM-labelled RNA was incubated in the presence of 500 nM eIF4A1 and the indicated concentration of CR-1-31-B (23) for 30 min, after which time FP measurements were obtained. The change in FP relative to vehicle controls is presented. n=3±SD. 17F. […]

eIF4A2 = eIF4A2 (UniProt P10630 P10630:1-407)
Chain of eIF4A2 (P10630 whole entry, one chain of several): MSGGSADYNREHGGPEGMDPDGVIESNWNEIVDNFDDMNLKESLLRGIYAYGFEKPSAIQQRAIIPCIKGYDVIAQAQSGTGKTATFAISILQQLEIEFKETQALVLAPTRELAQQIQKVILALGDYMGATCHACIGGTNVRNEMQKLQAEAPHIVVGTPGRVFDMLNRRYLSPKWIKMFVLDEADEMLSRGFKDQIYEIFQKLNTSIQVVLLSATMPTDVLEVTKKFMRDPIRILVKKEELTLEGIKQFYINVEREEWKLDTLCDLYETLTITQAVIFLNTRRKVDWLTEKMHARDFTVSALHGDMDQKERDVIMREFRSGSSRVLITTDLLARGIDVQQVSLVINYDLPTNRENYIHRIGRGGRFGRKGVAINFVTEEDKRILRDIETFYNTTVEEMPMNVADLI
Experimental: (§1) FIGS. 17A-17F. Assessment of eIF4A1 and eIF4A2 RNA binding specificity. 17A. Chemical structure of the most commonly used rocaglates in biological studies 17B. Coomassie blue staining of SDS-PAGE showing eIF4A1 and eIF4A2 preparations used herein. 17C. eIF4A1 and eIF4A2 have similar RNA binding specificities. eIF4A1 or eIF4A2 (500 nM) were incubated in the presence of FAM-labelled RNA (10 nM) having the indicated sequence composition for 30 mins, after which FP measurements were taken. The change in FP obtained relative to vehicle controls is presented. n=3 SD. 17D. Binding of eIF4A1 and eIF4A2 to RNA is equally responsive to CR-1-31-B (23). FAM labeled poly r(AG)₈ (SEQ ID NO: 2) (10 nM) was mixed with the indicated concentrations of eIF4A1 or eIF4A2 either in the presence of vehicle (DMSO) or […] CR-1-31-B(23). Reactions were equilibrated at RT for 30 minutes prior to measuring light polarization. n=3 SD. 17E. […] FAM-labelled RNA was incubated in the presence of 500 nM eIF4A1 and the indicated concentration of CR-1-31-B (23) for 30 min, after which time FP measurements were obtained. The change in FP relative to vehicle controls is presented. n=3±SD. 17F. The extent of eIF4A-RNA binding stimulated by CR-1-31-B 23 scales with polypurine content. FAM-labelled RNA was incubated with 500 nM eIF4A1 and the indicated concentration of CR-1-31-B (23) for 30 min, after which time FP measurements were obtained. The change in FP obtained relative to vehicle controls is presented. n=3 SD.

eIF4A1 [2] = target: T1, eIF4A1; remark: listed apart in the source
Experimental: as §1

T1 sequence (P60843 whole entry, one chain of several): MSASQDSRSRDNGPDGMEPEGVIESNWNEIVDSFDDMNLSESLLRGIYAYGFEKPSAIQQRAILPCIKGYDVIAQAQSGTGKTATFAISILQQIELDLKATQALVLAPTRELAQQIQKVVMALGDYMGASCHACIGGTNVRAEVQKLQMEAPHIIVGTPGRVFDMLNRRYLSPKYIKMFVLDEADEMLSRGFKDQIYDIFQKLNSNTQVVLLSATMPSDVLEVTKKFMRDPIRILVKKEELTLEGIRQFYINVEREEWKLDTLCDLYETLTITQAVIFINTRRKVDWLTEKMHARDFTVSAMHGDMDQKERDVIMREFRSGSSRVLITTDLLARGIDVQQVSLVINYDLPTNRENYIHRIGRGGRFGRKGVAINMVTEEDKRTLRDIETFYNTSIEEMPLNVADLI

| Binder | binding result (eIF4A1 [1]) | binding result (eIF4A2) | binding result (eIF4A1 [2]) |
| --- | --- | --- | --- |
| AGAGAGAGAGAGAGAG (ssRNA) [poly r(AG)8] | binds | binds |  |
| AGAAGAAGAAGAAGAA (ssRNA) [r(A(GAA)5)] |  | binds | binds |
